Laboratory results as given in patent US6573364 (CURAGEN, dated 2003).

B1: HPS protein fragment 1272-2357 fused to the Gal4 activator domain (reverse screen) (other)
chain: NVKESYCPLVPHTMYCLPLWQGINLVLLTRSPSAPLALVLSQLMDGFSMLEKKLKEGPEPGASLRSQPLVGDLRQRMDKFVKNRGAQEIQSTWLEFKAKAFSKSEPGSSWELLQACGKLKRQLCAIYRLNFLTTAPSRGGPHLPQHLQDQVQRLMREKLTDWKDFLLVKSRRNITMVSYLEDFPGLVHFIYVDRTTGQMVAPSLNCSQKTSSELGKGPLAAFVKTKVWSLIQLARRYLQKGYTTLLFREGDFYCSYFLWFENDMGYKLQMIEVPVLSDDSVPIGMLGGDYYRKLLRYYSKNRPTEAVRCYELLALHLSVIPTDLLVQQAGQLARRLWEASRIPLL
notes: Codes for the same HPS residues as the 1272-2306 construct but is a separate construct; also called HPS protein domain 1272-2357; HPS U65676 1272-2357; not shown: order of the two pie
B5: HPS protein fragment 210-1292 fused to the Gal4 activator domain (reverse screen) (other)
chain: KCVLVATEGAEVLFYWTDQEFEESLRLKFGQSENEEEELPALEDQLSTLLAPVIISSMTMLEKLSDTYTCFSTENGNFLYVLHLFGECLFIAINGDHTESEGDLRRKLYVLKYLFEVHFGLVTVDGHLIRKELRPPDLAQRVQLWEHFQSLLWTYSRLREQEQCFAVEALERLIHPQLCELCIEALERHVIQAVNTSPERGGEEALHAFLLVHSKLLAFYSSHSASSLRPADLLALILLVQDLYPSESTAEDDIQPSPRRARSSQNIPVQQAWSPHSTGPTGGSSAETETDSFSLPEEYFTPAPSPGDQSSGSTIWLEGGTPPMDALQIAEDTLQTLVPHCPVPSGPRRIFLDANVKESYC
notes: Residue limits are derived from the printed nucleotide limits; also called HPS protein domain 210-1292; HPS U65676 210-1292; not shown: order of the two pie

Legend:
[1] = molecular target: T1, CDK2, prey insert starting at nucleotide 4 of GenBank X61622, fused to the Gal4 DNA binding domain (yeast; human, UniProt P04386 1-147); test: yeast two-hybrid, reverse screen; listed in Table I as an interaction with HPS 1272-2357, 1 isolate
T1 construct: Prey of the reverse screen; Residue limits derived from the printed nucleotide start; also called CDK2 X61622 4-*
Procedure: (§1) The two mating strains ([…]) were then diluted in YAPD media (see Id.) filtered onto nitrocellulose membranes and incubated at 30° C. for 6–8 hours. […] The mating products were plated on synthetic complete (SC) media (see Kaiser, Michaelis & Mitchell, Eds., 1994. *Methods in Yeast Genetics*, 1994 *Ed.* (Cold Spring Harbor Laboratory Press, New York, N.Y.) lacking adenine and lysine (to select for successful mating), leucine and tryptophan (to select for expression of genes encoded by both the bait and prey plasmids), and uracil and histidine (to select for protein interactions). This medium is hereinafter referred to as SCS medium, for SC Selective medium.
(§2) Selected clones were subsequently examined for expression of β-galactosidase to confirm the formation of an HPS protein•HPS protein-IP interaction. […]
(§3) The cells contained within colonies which were "positive" for protein interaction contained a mixture of DNA-binding and activation-domain plasmids. […] Approximately 10 μl of each selected isolate was lysed, the inserts within the pAD-GAL4 or pGAD-GH for the activation domain plasmids and pBD-GAL4 or pGBT9BS plasmids were PCR amplified using primers specific for the flanking sequences of each vector and approximately 300 nucleotides (of what would be the protein's amino-terminus following translation) was determined using an ABI 377 sequenator. […]

[2] = molecular target: T2, HPS protein fragment 1272-2306 fused to the Gal4 activator domain (reverse screen) (yeast; human, UniProt Q92902 356-700); test: yeast two-hybrid, reverse screen; listed in Table I as an interaction with HPS 1272-2306, 1 isolate
T2 construct: Residue limits are derived from the printed nucleotide limits; also called HPS protein domain comprised of nucleotides 1272-2306; HPS U65676 1272-2306; not shown: order of the two pie
T2 sequence: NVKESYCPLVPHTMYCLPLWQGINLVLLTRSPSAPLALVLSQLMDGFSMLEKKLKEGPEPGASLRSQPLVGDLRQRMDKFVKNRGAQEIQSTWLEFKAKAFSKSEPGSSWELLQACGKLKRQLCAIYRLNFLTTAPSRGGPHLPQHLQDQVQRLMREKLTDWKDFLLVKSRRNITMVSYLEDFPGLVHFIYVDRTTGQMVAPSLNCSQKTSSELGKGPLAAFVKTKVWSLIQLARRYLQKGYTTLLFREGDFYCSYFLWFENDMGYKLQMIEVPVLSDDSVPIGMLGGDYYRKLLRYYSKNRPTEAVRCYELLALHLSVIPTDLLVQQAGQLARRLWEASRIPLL
Procedure: as §1, §2, §3

[3] = molecular target: B1; test: yeast two-hybrid, reverse screen; listed in Table I as an interaction with HPS 1272-2357, 1 isolate
Procedure: as §1, §2, §3

[4] = molecular target: B5; test: yeast two-hybrid, reverse screen; listed in Table I as an interaction with HPS 210-1292, 2 isolates
Procedure: as §1, §2, §3

[5] = molecular target: T3, HPS protein bait fragment 210-1292 fused to the Gal4 DNA binding domain (forward screen) (yeast; human, UniProt P04386 1-147); test: yeast two-hybrid, forward screen; listed in Table I as an interaction with HPS 210-1292, 3 isolates
T3 construct: Residue limits are derived from the printed nucleotide limits; also called Hermansky-Pudlak Syndrome protein; HPS U65676 210-1292
Procedure: as §1, §2, §3

[6] = molecular target: T4, Atrophin-1, prey insert starting at nucleotide 2649 of GenBank U23851, fused to the Gal4 DNA binding domain (yeast; human, UniProt P04386 1-147); test: yeast two-hybrid, reverse screen; listed in Table I as an interaction with HPS 210-1292, 1 isolate
T4 construct: Prey of the reverse screen; Residue limits derived from the printed nucleotide start; also called Atrophin I; atrophin-I
Procedure: as §1, §2, §3

**Q.** Does B1 bind [1]?
**A.** binds

B2: 14-3-3 protein eta isoform, prey insert starting at nucleotide 764 of GenBank X80536, fused to the Gal4 DNA binding domain (other, yeast)
chain: MKLLSSIEQACDICRLKKLKCSKEKPKCAKCLKNNWECRYSPKTKRSPLTRAHLTEVESRLERLEQLFLLIFPREDLDMILKMDSLQDIKALLTGLFVQDNVNKDAVTDRLASVETDMPLTLRQHRISATSSSEESSNKGQRQLTVSQACLLAKQAFDDAIAELDTLNEDSYKDSTLIMQLLRDNLTLWTSDQQDEEAGEGN
notes: Prey from a human fetal brain cDNA library, reverse screens; Residue limits derived from the printed nucleotide start; also called 14-3-3 eta
**Q.** What does the source list for B2?
**A.** binding result [2]: binds; binding result [3]: binds

B3: BMK1 alpha kinase, prey insert starting at nucleotide 2431 of GenBank U29725, fused to the Gal4 DNA binding domain (other, yeast)
chain: MKLLSSIEQACDICRLKKLKCSKEKPKCAKCLKNNWECRYSPKTKRSPLTRAHLTEVESRLERLEQLFLLIFPREDLDMILKMDSLQDIKALLTGLFVQDNVNKDAVTDRLASVETDMPLTLRQHRISATSSSEESSNKGQRQLTVSGAGYGVGFDLEEFLNQSFDMGVADGPQDGQADSASLSASLLADWLEGHGMNPADIESLQREIQMDSPMLLADLPDLQDP
notes: Prey of the reverse screen, 2 isolates; Residue limits derived from the printed nucleotide start
**Q.** Does B3 bind [4]?
**A.** binds

B4: HPIP1 (prey sequence of 619 nucleotides, interaction starting at nucleotide 1) fused to the Gal4 activator domain (other, not shown: large carriers)
chain: GTRLSINPNNHSWLIIQADIYFATNQYSAALHYYLQAGAVCSDFFNKAVPPDVYTDQVIKRMIKCCSLLNCHTQVAILCQFLREIDYKTAFKSLQEQNSHDAMDSYYDYIWDVTILEYLTYLHHKRGETDKRQIAIKAIGQTELNASNPEEVLQLAAQRRKKKFLQAMAKLYF
notes: Prey of the forward screen, 3 identical clones from a human fetal brain cDNA library; also called cg49368.b1; cg49367.h11
**Q.** Does B4 bind [5]?
**A.** binds

**Q.** Does B5 bind [6]?
**A.** binds
